# Values of other authors, collected in patent US20250009916A1, “COMBINATION THERAPY FOR TREATING LUNG CANCER” (Novartis AG, priority 2021, published 2025).
# Read-outs that look alike come from different tables or passages of the source.
# Assays:
# GEP-NET = details: cited from earlier work
# [1] = 100 mCi dose; patients pretreated, with risk factors or abnormal renal and bone marrow function; cited from earlier work
# [2] = in vivo; cited from earlier work
# ES-SCLC [3] = details: ES-SCLC patients, first-line, IMPower133; cited from earlier work
# ES-SCLC [4] = details: ES-SCLC patients, durvalumab arm, CASPIAN; cited from earlier work
# [5] = cited from earlier work
# [6] = cited from earlier work; remark: listed apart in the source
# SCLC = details: cited from earlier work
# advanced solid tumors = details: cited from earlier work
# [7] = 4 doses of 7.4 GBq/200 mCi every 8 weeks, GEP-NET patients
# [8] = 200-mg fixed dose cohort, evaluable n=13
# [9] = 17 SCLC patients, plus cisplatin/carboplatin and etoposide Q3W
substance,measurement,setting,value
Lutetium (^177Lu) oxodotreotide [[^177Lu] Lu-DOTA-TATE],progression free survival and quality of life with approved regimen,GEP-NET; [7],significant improvement of progression free survival (PFS) and quality of life
same,safety of approved regimen,GEP-NET; [7],safe
same,median overall survival,"GEP-NET; GEP-NET patients, phase 3 NETTER-1",48 months
same,safety of additional doses exceeding 800 mCi cumulative dose,GEP-NET; literature,without additional safety signals
same,tolerability,[1],favorable tolerability
same,elimination route,[2],mainly via the renal route
same,interaction with drug transporters,[2],does not interact with drug transporters
same,metabolization,[2],very low (if any)
atezolizumab: immune checkpoint inhibitor antibody (Roche),PFS,ES-SCLC [3],5.2 months
durvalumab: PD-L1 inhibitor,PFS,ES-SCLC [4],5.1 months
"tislelizumab: anti-PD-1 monoclonal antibody (Beigene), heavy chain SEQ ID NO: 1, light chain SEQ ID NO: 5",rates of treatment-related adverse events and serious adverse events across regimens,"[5]; 2 mg/kg and 5 mg/kg, once every 2 weeks and once every 3 weeks",comparable
same,treatment-related adverse events versus body-weight-based cohorts,"[5]; 200-mg fixed dose cohort, Phase Ia Part 3",no unexpected treatment-related adverse events
same,patients with BOR of partial response (PR),[5]; [8],23%
same,patients with BOR of progressive disease (PD),[5]; [8],46%
same,patients with BOR of stable disease,[5]; [8],31%
same,serum exposure,[6]; 200-mg dose,fell between serum exposure observed after 2 mg/kg and 5 mg/kg doses
same,CL,[6]; Phase Ia,"independent of body weight, ethnicity, and gender"
same,ORR,SCLC; [9],77%
same,median OS,SCLC; [9],15.6 months
same,median PFS,SCLC; [9],6.9 months
same,antitumor activity,"SCLC; tislelizumab 200 mg with platinum-based chemotherapy, including SCLC group",Encouraging antitumor activity
same,tolerability,SCLC; tislelizumab 200 mg with platinum-based chemotherapy,generally well tolerated
same,safety signals in combination with standard-of-care chemotherapies,advanced solid tumors; first-line lung cancer,did not lead to new safety signals
same,safety profile,advanced solid tumors; monotherapy or combined with platinum-based chemotherapy,manageable safety profile
